Assay results reported in US6436691B1, “Chemical compounds” (Zeneca Limited, priority 1995, dated 2002).
Residue numbers refer to the chain shown, from its start. Names may count otherwise. Each block holds one molecule with its values, some of them ahead of it.

Assays:
[1] = Activity against Hipp-Arg in crude E. coli periplasmic shockate relative to mature HCPB (Example 16); format: biochemical
Description: A number of other mutant HCPBs have been constructed in a similar manner to the methods described in Reference Examples 7 and 8, and Examples 12, 13, 14 and 15. In each case oligos were constructed to introduce specific changes in the gene sequence by methods similar to those described above. In some cases additional mutations were identified upon complete sequencing of the mutated gene, and these were presumably introduced during the PCR reactions. Mutants with enzyme activity against substrate analogues (see Example 18 below) have been identified, and examples of these are given in Table 4 below. […] This material is subsequently referred to as periplasmic shockate or shockate and is prepared by the following procedure.
1. A single colony was used to inoculate 75 ml of L-broth nutrient media containing 10 μg/ml tetracycline and arabinose to a final concentration of 0.01% (w/v). […]
The activity of [G251T,D253K]HCPB was measured using the assay conditions described in Example 17 but using either 50 μl of a neat or 1 in 10 or 1 in 100 dilution of [G251T,D253K]HCPB crude E.coli periplasmic shockate (shockate) sample in place of purified enzyme. […] The amount of Hippuric acid produced in 24 h was quantified by HPLC as described in Example 17 and the results are shown in Table 6 and are expressed as the percentage conversion of substrate into product in 24 h at 37° C.

melting point: 98 to 100 °C
Molecule: O=C(O)CCC(=O)Oc1ccc(N(CCCl)CCCl)cc1

B1: C288S: HCPB mutant with C288S (protein, UniProt P15086 111-417, looked up, variant C288S)
Carboxypeptidase B: ATGHSYEKYNKWETIEAWTQQVATENPALISRSVIGTTFEGRAIYLLKVGKAGQNKPAIFMDCGFHAREWISPAFCQWFVREAVRTYGREIQVTELLDKLDFYVLPVLNIDGYIYTWTKSRFWRKTRSTHTGSSCIGTDPNRNFDAGWCEIGASRNPCDETYCGPAAESEKETKALADFIRNKLSSIKAYLTIHSYSQMMIYPYSYAYKLGENNAELNALAKATVKELASLHGTKYTYGPGATTIYPAAGGSDDWAYDQGIRYSFTFELRDTGRYGFLLPESQIRATSEETFLAIKYVASYVLEHLY
Hipp-Arg, activity relative to mature HCPB [1]: c (activity 75% of mature HCPB (described in Reference Examples 7 and 8))

B2: C288A: HCPB mutant with C288A (protein, UniProt P15086 111-417, looked up, variant C288A)
Carboxypeptidase B: B1 Carboxypeptidase B with S288A
Hipp-Arg, activity relative to mature HCPB [1]: d (activity 25% of mature HCPB (described in Reference Examples 7 and 8))
